The target in this test is T1, chemokine receptor CCR5 (human, UniProt P51681 1-352).
T1 construct: whole, on cells
The experiment in a line: ^125I-MIP-1β binding to human monocytes, displacement by unlabeled MIP-1β.

The record followed here is patent publication US20030147883A1 (US Dept. of Health and Human Services, published 2003).

T1 sequence (P51681 whole entry): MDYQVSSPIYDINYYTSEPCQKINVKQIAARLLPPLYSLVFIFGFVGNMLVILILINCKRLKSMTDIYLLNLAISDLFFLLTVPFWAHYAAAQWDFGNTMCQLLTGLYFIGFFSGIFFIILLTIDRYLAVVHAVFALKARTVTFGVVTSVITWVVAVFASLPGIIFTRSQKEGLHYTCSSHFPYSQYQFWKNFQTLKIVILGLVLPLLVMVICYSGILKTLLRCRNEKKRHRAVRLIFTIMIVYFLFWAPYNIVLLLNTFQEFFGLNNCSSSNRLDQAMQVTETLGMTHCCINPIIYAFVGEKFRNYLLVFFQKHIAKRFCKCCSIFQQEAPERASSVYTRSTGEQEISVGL
Protocol: After incubation, the cells were washed with DPBS and centrifuged through a 10% sucrose/DPBS cushion. The tips of tubes containing cell pellets were cut and the cell-associated radioactivity was determined in a gamma counter. The results were presented as counts per minute (cpm) on 2×10⁶ monocyte and were representative of at least three experiments performed.

B1: MIP-1β (ligand, human, UniProt P13236 24-92, looked up)
chain: APMGSDPPTACCFSYTARKLPRNFVVDYYETSSLCSQPAVVFQTKRSKQVCADPSESWVQEYVYDLELN
notes: also called MIP-1beta
Consider B1, for which the binding result is “binds”.
